Data on three proteins can be found in paper PMC9672406.

Numbering of substitutions follows the chain as printed. Names may count otherwise.

Substrate in the data set: C=C(O[C@@H]1C=C(C(=O)O)C=C[C@H]1O)C(=O)O
Description: purified protein. To be noted: 100 mM Tris/HCl pH 7.5, 22 °C, 5 min, 0.05 μM enzyme.

B1: ScMqnA (chorismate dehydratase MqnA) (Streptomyces coelicolor A3(2)) (protein)
chain: MDNSRTRPRVGHIQFLNCLPLYWGLARTGTLLDFELTKDTPEKLSEQLVRGDLDIGPVTLVEFLKNADDLVAFPDIAVGCDGPVMSCVIVSQVPLDRLDGARVALGSTSRTSVRLAQLLLSERFGVQPDYYTCPPDLSLMMQEADAAVLIGDAALRANMIDGPRYGLDVHDLGALWKEWTGLPFVFAVWAARRDYAEREPVITRKVHEAFLASRNLSLEEVEKVAEQAARWEAFDEDTLAKYFTTLDFRFGAPQLEAVTEFARRVGPTTGFPADVKVELLKP
In general, Km refers to the concentration of substrate that gives half-maximal velocity. A word on the Vmax: it is the rate approached at saturating substrate. For orientation: kcat means the number of substrate molecules converted per active site and unit of time at saturation. B1: the Michaelis-Menten constant (Km) turned out to be 121 ± 38 µM, the Vmax came out at 0.458 µmol/min/mg and the kcat was determined as 0.24 ± 0.02 s⁻¹.

B2: ScMqnA (chorismate dehydratase MqnA) (Streptomyces coelicolor A3(2); N17A) (protein)
chain: B1 chain with N17A
For the protein B2, the Michaelis constant (Km) is 257 ± 87 µM, the maximum rate (Vmax) was found to be 0.473 µmol/min/mg and the turnover number (kcat) was determined as 0.25 ± 0.02 s⁻¹.

B3: ScMqnA (chorismate dehydratase MqnA) (Streptomyces coelicolor A3(2); Y242F) (protein)
chain: B1 chain with Y242F
For B3, the Km worked out at 377 ± 106 µM, the maximal velocity (Vmax) was 1.06 µmol/min/mg and the kcat turned out to be 0.56 ± 0.06 s⁻¹.
